T1: Ube2G2/MmUbc7 (Mus musculus, UniProt P60605)
T1 construct: made in house; host or cells: coupled in vitro transcription/translation in rabbit reticulocyte lysate or wheat germ
T1 sequence (P60605 1-165): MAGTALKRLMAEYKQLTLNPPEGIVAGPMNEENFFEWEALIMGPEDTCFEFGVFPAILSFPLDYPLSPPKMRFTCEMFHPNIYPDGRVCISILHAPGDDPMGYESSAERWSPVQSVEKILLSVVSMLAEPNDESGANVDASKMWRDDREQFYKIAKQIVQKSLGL

T2: His6-Ube2G2 (Mus musculus, UniProt P60605)
T2 construct: made in house; host or cells: bacteria (pExp17, Gateway)
T2 sequence (P60605 1-165): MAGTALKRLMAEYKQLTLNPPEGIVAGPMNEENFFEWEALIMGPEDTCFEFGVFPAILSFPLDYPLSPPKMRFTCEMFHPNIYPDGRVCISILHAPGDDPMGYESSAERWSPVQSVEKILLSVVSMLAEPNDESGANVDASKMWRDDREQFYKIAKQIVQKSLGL

T3: endogenous Ube2G2 (Homo sapiens, UniProt P60604)
T3 construct: endogenous in cells; host or cells: HEK 293T
T3 sequence (P60604 1-165): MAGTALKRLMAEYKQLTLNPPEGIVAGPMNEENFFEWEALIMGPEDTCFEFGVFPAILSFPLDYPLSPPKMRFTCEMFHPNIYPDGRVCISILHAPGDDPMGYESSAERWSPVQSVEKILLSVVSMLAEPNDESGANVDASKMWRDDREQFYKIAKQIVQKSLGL

T4: Ube2G1 (Rattus norvegicus, UniProt P62255)
T4 construct: made in house; host or cells: in vitro translation in wheat germ (similar results in reticulocyte lysate)
T4 sequence (P62255 1-170): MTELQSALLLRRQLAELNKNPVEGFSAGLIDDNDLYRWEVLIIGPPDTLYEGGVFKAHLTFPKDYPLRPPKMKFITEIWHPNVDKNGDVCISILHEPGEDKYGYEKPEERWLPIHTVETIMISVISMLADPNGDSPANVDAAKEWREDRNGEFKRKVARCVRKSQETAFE

T5: Ubc7p (Saccharomyces cerevisiae, UniProt Q02159)
T5 construct: made in house; host or cells: in vitro translation in wheat germ from pCDNA-DEST47
T5 sequence (Q02159 1-165): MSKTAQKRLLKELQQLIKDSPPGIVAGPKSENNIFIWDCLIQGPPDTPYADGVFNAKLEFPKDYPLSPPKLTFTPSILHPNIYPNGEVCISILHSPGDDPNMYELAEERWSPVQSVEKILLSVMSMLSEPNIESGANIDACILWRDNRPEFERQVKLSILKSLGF


Key:
[1] = target: T1, Ube2G2/MmUbc7; assay: GST pull-down binding of in vitro translated 35S-Met Ube2G2/MmUbc7; design: species or system human; conditions: GST fusion pull-down; 35S-Met labeled E2
[2] = target: T2, His6-Ube2G2; assay: Direct binding of bacterially expressed His6-Ube2G2 to GST fusions; conditions: purified E2, anti-His6 immunoblot
Protocol: (§1) GST fusions were purified from E. Coli. Binding was carried out using equi-molar amount of fusion proteins measured by Commassie blue staining. Generally, 20 picomoles/sample were used. In vitro translated E2 was generated by coupled transcription and translation using 35S methionine in either wheat germ or rabbit reticulocyte lysate. Binding assays using in vitro translated E2 was carried out by incubating GST protein pre-bound to Glutathione-sepharose 4B with […] of ^35S-methionine labeled E2 in binding buffer (25 mM Tris-HCl, pH 7.4; 50 mM NaCl, 5 mM DTT; and 0.5% NP-40) overnight at 4° C. Beads were washed with binding buffer and resolved by SDS-PAGE under reducing conditions. Analysis was by Storm PhosphoImager (Applied Biosystems, Foster City, Calif.). Direct binding assays used wild type His6-MmUbc7 (His6-Ube2G2) and Glutathione-sepharose bound GST fusions. Beadbound GST protein was incubated with 100 ng purified His6-MmUbc7 in binding buffer and washed and eluted as above. After transfer to Hybond-P (Amersham Biosciences) binding was assessed with anti-His6 followed by Enhanced Chemiluminescence ECL; Pierce). Ubiquitin binding studies were performed with binding and washing as above using 1 μg K48 tetra-ubiquitin produced as described (Piotrowski et al., 1997). Detection was by anti-ubiquitin immunoblotting.

[3] = target: T3, endogenous Ube2G2; assay: Co-immunoprecipitation of endogenous Ube2G2 with GFP fusions in HEK 293T cells; type: cell-based; conditions: anti-GFP IP
Protocol: Transfections of HT1080, NIH 3T3 and HEK 293T cells were carried out ˜24 hr after plating using Polyfect (Qiagen, Valencia, Calif.) and cells harvested after ˜48 hr. J558 cells were transfected by electroporation using Bio-rad GENE pulser II at settings of 250 v, 950uF. Vector without insert was used to equalize total plasmid. In most experiments 0.15 μg of pEGFP-C1 served as an internal control. For experiments not involving immunoprecipitation, 6×10^5 cells were plated in 6 well plates and cell lysis was with Mammalian Protein Extraction Reagent (Pierce). […] Supernatants were analyzed after a 10,000×g centrifugation using standard techniques for immunoprecipitation, SDS-PAGE, immunoblotting and ECL. […]
FIG. 6 depicts the specific binding of gp78 residues 574-611 (of SEQ ID NO:2) to endogenous Ube2G2 in HEK 293T cells. Cells were transfected with plasmids encoding GFP fusions of the indicated regions of gp78, and co-immunoprecipitation was evaluated. […]
To determine the specificity of E2 binding in cells, GFP fusions encompassing the E2 binding region were expressed in cells, and co-immunoprecipitation of endogenous E2 was tested using antibodies raised specifically against Ube2g1, Ube2G2 and UbcH5B (FIG. 19B). […] In contrast, and consistent with the in vitro binding data in FIG. 18, no association with endogenous UbcH5B or Ube2g1 was detected (FIG. 19B third and fourth panels, left). […]

[4] = system: ERAD substrate CD3-δ; assay: Cycloheximide chase of CD3-δ in co-transfected cells; type: cell-based; conditions: co-transfection with HA-CD3-δ
Protocol: (§2) Transfections of HT1080, NIH 3T3 and HEK 293T cells were carried out ˜24 hr after plating using Polyfect (Qiagen, Valencia, Calif.) and cells harvested after ˜48 hr. J558 cells were transfected by electroporation using Bio-rad GENE pulser II at settings of 250 v, 950uF. Vector without insert was used to equalize total plasmid. In most experiments 0.15 μg of pEGFP-C1 served as an internal control. For experiments not involving immunoprecipitation, 6×10^5 cells were plated in 6 well plates and cell lysis was with Mammalian Protein Extraction Reagent (Pierce). For immunoprecipitation, 2.4×10^6 cells were seeded in 100 mm dishes and cells were lysed in RIPA buffer (1×PBS, 1% Nonidet P40. 0.5% sodium deoxycholate, 0.1% SDS). Lysis buffers were supplemented with Protease Inhibitor Cocktail (Sigma) and 10 mM iodoacetamide. Supernatants were analyzed after a 10,000×g centrifugation using standard techniques for immunoprecipitation, SDS-PAGE, immunoblotting and ECL. Treatment of cells with MG132 (Sigma) was at 50 μM for eight hr. Cycloheximnide was used at 50 μg/ml. All cells were collected at the end of the six hr chase.
(§3) To evaluate protein turnover in more detail, cycloheximide chase experiments were performed (FIGS. 20C and 20D). […] In agreement with FIG. 20A, CD3-δ degradation was accelerated with wild type gp78 (FIGS. 20C and 20D middle panels; effects of full-length forms of gp78 on CD3-δ from FIGS. 20C and 20D are quantified in FIG. 20E).

[5] = system: gp78; assay: Cycloheximide chase of gp78 in transfected cells; type: cell-based; conditions: compared to wild type gp78
Protocol: as §2, §3

[6] = target: T4, Ube2G1; assay: GST pull-down binding of in vitro translated Ube2G1; conditions: GST fusion pull-down
Text: Plasmids encoding the following have been described: rat Ubc7 (Ube2g1) (Lin and Wing, 1999); UbcH5B (Jensen et al., 1995); Myc-MmUbc7, C89S Myc-MmUbc7, HA-CD3-δ and 2B4 TCR-α (Tiwari and Weissman, 2001); GST-gp78 309 to 643, 508 or 428 and full length gp78 and the double RING finger mutation gp78Rf-m in pCINeo (Fang et al., 2001); and GST-UBA-Cbl-b (Davies et al., 2004). Plasmids encoding Ubc7p and His6-MmUbc7 were generated by PCR and subcloned into pCDNA-DEST47 or pExp17 respectively using Gateway (Invitrogen, Carlsbad, Calif.). GST-AO7 (92 to 259) was subcloned from full length A07 (Lorick et al., 1999). GST-gp78 beginning at 429, 503, 522, 542, 561, 574, 587, or 596 and ending at 643 GST-gp78 beginning at 435 and ending at 507 and GST-Cue1p 24-203 (Cue1pC) were generated by PCR and cloning into pGEX4T-1 (Amersham Biosciences, Piscataway, N.J.). N-terminal Flag-tagged constructs were created by PCR and cloning into pFlag-CMV6 (Sigma). N-terminal GFP-tagged constructs were generated by subcloning from pFLAG-CMV6 to pEGFP-C1 (BD Biosciences, Palo Alto, Calif.). […]
GST fusions were purified from E. Coli. Binding was carried out using equi-molar amount of fusion proteins measured by Commassie blue staining. […] After transfer to Hybond-P (Amersham Biosciences) binding was assessed with anti-His6 followed by Enhanced Chemiluminescence ECL; Pierce). […]

[7] = target: T6, UbcH5B (Homo sapiens, UniProt P62837); assay: GST pull-down binding of in vitro translated UbcH5B; conditions: GST fusion pull-down
T6 construct: made in house; host or cells: in vitro translation in wheat germ
Protocol: as §1, with “immunoblotting. […]” for “immunoblotting.”

[8] = target: T5, Ubc7p; assay: GST pull-down binding of in vitro translated Ubc7p; design: species or system yeast; conditions: GST fusion pull-down
Protocol: as §1, with “immunoblotting. […]” for “immunoblotting.”

[9] = target: T7, lysine 48-linked (K48) tetra-ubiquitin (Homo sapiens, UniProt P0CG47); assay: Tetra-ubiquitin binding to GST fusions; conditions: anti-ubiquitin immunoblot
T7 construct: 1 μg K48 tetra-ubiquitin produced as described (Piotrowski et al., 1997); made in house
Protocol: as §1

T6 sequence (P62837 whole entry, the tested form may be a part): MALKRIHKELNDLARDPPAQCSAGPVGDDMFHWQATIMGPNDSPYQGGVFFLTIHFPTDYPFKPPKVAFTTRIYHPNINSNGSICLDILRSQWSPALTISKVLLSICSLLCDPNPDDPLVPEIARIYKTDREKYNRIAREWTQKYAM

Molecule | binding to in vitro translated Ube2G2/MmUbc7 [1] | direct binding of His6-Ube2G2 [2] | co-immunoprecipitation of endogenous Ube2G2 [3] | effect on CD3-δ degradation [4] | gp78 stability [5] | binding to in vitro translated Ube2G1 [6] | binding to in vitro translated UbcH5B [7] | binding to in vitro translated yeast Ubc7p [8] | binding of K48 tetra-ubiquitin [9]
E2-m2: GST-gp78 fusion with residues 579-584 (QRMLVQ) mutated to AAAGGG; in b274 the same mutation in a GFP fusion (protein) MPLLFLERFPWPSLRTYTGLSGLALLGTIISAYRALSQPEAGPGEPDQLTASLQPEPPAPARPSAGGPRARDVAQYLLSDSLFVWVLVNTACCVLMLVAKLIQCIVFGPLRVSERQHLKDKFWNFIFYKFIFIFGVLNVQTVEEVVMWCLWFAGLVFLHLMVQLCKDRFEYLSFSPTTPMSSHGRVLSLLVAMLLSCCGLAAVCSITGYTHGMHTLAFMAAESLLVTVRTAHVILRYVIHLWDLNHEGTWEGKGTYVYYTDFVMELTLLSLDLMHHIHMLLFGNIWLSMASLVIFMQLRYLFHEVQRRIRRHKNYLRVVGNMEARFAVATPEELAVNNDDCAICWDSMQAARKLPCGHLFHNSCLRSWLEQDTSCPTCRMSLNIADNNRVREEHQGENLDENLVPVAAAEGRPRLNQHNHFFHFDGSRIASWLPSFSVEVMHTTNILGITQASNSQLNAMAHQIQEMFPQVPYHLVLQDLQLTRSVEITTDNILEGRIQVPFPTQRSDSIRPALNSPVERPSSDQEEGETSAQTERVPLDLSPRLEETLDFGEVEVEPSEVEDFEARGSRFSKSADERAAAGGGRKDELLQQARKRFLNKSSEDDAASESFLPLEGASSDPVTLRRRMLAAAAERRLQKQQTS | loss of binding | disrupted binding | abrogated binding | minimal stabilization of CD3-δ | stabilized gp78 | – | – | – | –
Cue1pC: GST fusion of the cytoplasmic domain of yeast Cue1p (protein, left off: a dimerising Fc or GST, GST fusion of the cytoplasmic domain of yeast Cue1p) QSNQHPSAQRLSATGVNAHGRPQGSTQNALRRTGRVNGGHPVTTQMVETVQNLAPNLHPEQIRYSLENTGSVEETVERYLRGDEFSFPPGFEPSRAPMGANAAVDNNAAGGGEFNDPRKKNMICAENLLDKFHVDLNEDMSNLSFKDLDIEERKRLLVWQARKNLETKLQSDKDLQSLLT | bound | – | – | – | – | no binding | bound to neither | bound | no binding

— patent publication US8420776B2, “Ube2G2 binding domain in the ubiquitin ligase gp78 and methods of use thereof” (The United States of America, as Represented by the …, priority 2004, dated 2013)
